Here are results for one molecule from patent US20140193431A1 (KOREA RESEARCH INSTITUTE OF BIOSCIENCE AND BIOTECHNOLOGY, published 2014).

The target in experiment [1] is c-Met (ligand of the SPR analysis, form not stated) (UniProt P08581). Description: SPR (ProteOn XPR36), B7 antibody flowed at 2.5-80 nM, Langmuir 1:1 model; immobilised protein not named.
Experiment [2] concerns the target T1, dog Met receptor on MDCK cells (dog, UniProt Q75ZY9 25-1382).
T1 construct: whole, on cells; also called Met receptor of dog kidney MDCK (Madin-Darby Canine Kidney) cells
Description: FACS on MDCK cells, Alexa Fluor 488 anti-human IgG. As for the experimental part:
Each of Hep3B, HeLa, A549 and HepG2, known to readily express the Met receptor, MCF7 cells known to not readily express the Met receptor, and dog kidney MDCK (Madin-Darby Canine Kidney) cells was prepared, washed twice with PBS, detached by treatment with trypsin, washed again with PBS, and then suspended in PBS (PBA buffer) containing 1% BSA protein. Then, the cells were treated with the purified with the purified B7 antibody at 1:100 at 4° C., after which the cells were washed with PBA buffer and precipitated by centrifugation at 1200 rpm for 3 minutes, and the washing and precipitation process was repeated three times. […] The cells were washed in the same manner as described above and subjected to FACS analysis (BD Cantoll Flow Cytometer) (FIG. 6). Herein, human IgG (hIgG) was used as the internal standard. FIG. 6 is a graphic diagram showing the results of FACS analysis performed to examine whether the B7 antibody did bind to Hep3B, HeLa, A549, HepG2, MCF7 and dog kidney MDCK cells.

In experiment [3] the target is c-Met (ligand of the SPR analysis, form not stated) (UniProt P08581). Description: SPR (ProteOn XPR36), B7 at 2.5 to 80 nM as analyte, Langmuir 1:1 fit, grouped.

T1 sequence (Q75ZY9 25-1382): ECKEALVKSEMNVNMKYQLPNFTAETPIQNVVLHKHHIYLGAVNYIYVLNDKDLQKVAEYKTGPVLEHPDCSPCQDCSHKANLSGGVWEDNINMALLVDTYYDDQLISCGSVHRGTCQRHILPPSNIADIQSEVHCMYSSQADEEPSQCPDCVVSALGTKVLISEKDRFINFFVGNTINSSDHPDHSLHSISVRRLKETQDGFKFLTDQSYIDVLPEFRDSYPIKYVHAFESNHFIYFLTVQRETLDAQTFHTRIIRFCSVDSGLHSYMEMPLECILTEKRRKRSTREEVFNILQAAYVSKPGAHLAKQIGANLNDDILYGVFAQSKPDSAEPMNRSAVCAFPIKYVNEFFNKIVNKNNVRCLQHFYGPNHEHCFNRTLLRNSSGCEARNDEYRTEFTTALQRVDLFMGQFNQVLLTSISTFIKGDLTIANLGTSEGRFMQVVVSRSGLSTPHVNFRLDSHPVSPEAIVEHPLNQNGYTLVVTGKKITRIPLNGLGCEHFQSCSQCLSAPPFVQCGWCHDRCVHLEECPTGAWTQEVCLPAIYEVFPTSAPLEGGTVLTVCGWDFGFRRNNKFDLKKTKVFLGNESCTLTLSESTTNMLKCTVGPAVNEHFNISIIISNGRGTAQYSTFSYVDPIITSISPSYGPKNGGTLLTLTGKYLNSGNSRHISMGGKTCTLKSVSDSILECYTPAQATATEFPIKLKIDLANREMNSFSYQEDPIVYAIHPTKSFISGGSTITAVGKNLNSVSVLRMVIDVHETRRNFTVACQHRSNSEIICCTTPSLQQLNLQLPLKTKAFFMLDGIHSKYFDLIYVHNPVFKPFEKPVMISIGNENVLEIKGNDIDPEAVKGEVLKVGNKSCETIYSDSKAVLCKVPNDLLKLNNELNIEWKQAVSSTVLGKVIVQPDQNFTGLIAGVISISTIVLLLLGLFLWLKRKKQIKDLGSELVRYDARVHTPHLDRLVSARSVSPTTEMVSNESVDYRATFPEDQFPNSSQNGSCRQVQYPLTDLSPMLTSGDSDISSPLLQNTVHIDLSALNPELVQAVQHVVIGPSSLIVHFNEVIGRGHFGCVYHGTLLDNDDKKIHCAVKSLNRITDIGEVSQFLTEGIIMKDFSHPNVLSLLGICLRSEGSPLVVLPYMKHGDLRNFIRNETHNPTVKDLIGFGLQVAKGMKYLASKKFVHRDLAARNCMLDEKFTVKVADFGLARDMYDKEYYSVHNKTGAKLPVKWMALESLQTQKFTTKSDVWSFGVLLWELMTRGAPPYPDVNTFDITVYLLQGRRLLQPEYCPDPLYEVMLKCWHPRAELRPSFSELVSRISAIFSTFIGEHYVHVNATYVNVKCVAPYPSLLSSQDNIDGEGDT

B1: B7 antibody (human anti-c-Met antibody, whole IgG) (antibody, V domains shown)
VH: QVQLQEWGAGLLKPSETLSLTCAVSGGSLSGHYWSWVRLPPGKGLEWIGEISHSGNTNYNSSLKSRASISIDTSKNEYSLNLKSVTAVDTAVYYCARFYGDYPSSYGMDVWGQGTTVTVSS
VL: QSALTQPASVSGSPGQSITISCTGTISDIGTYDFVSWYQHKPGKAPKLLIFDVNNRPSGVSSRFSGSKSDNTASLSISGFQAEDEADYYCSSYTDNRGLVLFGGGTKLTVLR
notes: Whole IgG made by cloning the B7 phage variable regions into pNATABH/pNATABL vectors and expressing them in 293E cells; also called human antibody B7; C-Met B7 antibody
In the case of B1, the dissociation constant Kd in experiment [1] is 3.3 nM. Further, the binding result in experiment [2] was “no binding (tested: 1:100)”. For the same molecule, in experiment [3], the kon is 73000 M⁻¹ s⁻¹.
